Laboratory results taken from the DeepSol protein solubility set.

experiment: soluble on expression in E. coli; label from the status in PepcDB or PDB records

Sequence | soluble on expression in E. coli
MQLSWKDIPTVAPANDLLDIVLNRTQRKTPTVIRPGFKITRIRAFYMRKVKYTGEGFVEKFEDILKGFPNINDVHPFHRDLMDTLYEKNHYKISLAAISRAKSLVEQVARDYVRLLKFGQSLFQCKQLKRAALGRMATIVKKLRDPLAYLEQVRQHIGRLPSIDPNTRTLLICGYPNVGKSSFLRCITKSDVDVQPYAFTTKSLYVGHFDYKYLRFQAIDTPGILDRPTEEMNNIEMQSIYAIAHLRSCVLYFMDLSEQCGFTIEAQVKLFHSIKPLFANKSVMVVINKTDIIRPEDLDEERAQLLESVKEVPGVEIMTSSCQLEENVMEVRNKACEKLLASRIENKLKSQSRINNVLNKIHVAQPQARDDVKRTPFIPESVKNLKKYDPEDPNRRKLARDIEAENGGAGVFNVNLKDKYLLEDDEWKNDIMPEILDGKNVYDFLDPEIAAKLQALEEEEEKLENEGFYNSDDEEEIYDGFEASEVDDIKEKAAWIRNRQKTMIAEARNRKSLKNKAIMPRSKLTKSFGKMEEHMSTLGHDMSALQDKQNRAARKNRYVERGSDVVFGDQDALTASTENGVKLRQTDRLLDGVADGSMRSKADRMAKMERRERNRHAKQGESDRHNAVSLSKHLFSGKRGVGKTDFR | not soluble
MGSDKIHHHHHHMRGSAVARDLTDDKAMVHGALSMLARGGAVDQAYAPDAVAEIAHPYGTCTGADITRFYGDLHRALPDANWRPEIFFAGHNHPDERMEGPRVAAQVGSFGHWQGTFTQPLLGIEPTGGVVHLRMCEVHHLNAAGQIAQSWILPDFLDLMDQAGQFPLPPMNGARGLWPGPRGGNGVRMGPPDVAGGNASMAQVLDMHNALNTHVGADVSGLTMAHWDPNFMYYAAAGIGICRGVEGFRRNHQIPFREAVPDRYSKGHFVRIADGRFALTGGRLYATHTGTYLGIPATGRQVHIDVMDFYHFHDQGLICQNWLPFDILKTAHQMGVDLLPALPS | not soluble
GYDCLGYYQNQEDIMNSPKRQSSVNLGAGDLKYNDFNGDGIIDGSDQHRIGKNSMPRGQYGFSADLNYKGWFMNMLWQGATPADLYMGGMIQGSQSGSGYPPVIYDFQTDVWTPNNTGARYPRLRSTASYNGSNNYGSSDFWLINTGYLRLKTLSIGYDFKHKLLKRVAWMNKCNVSLNGYNLLTFSKANKFDIDPEIGDGNLYTYPVSRVYSISVNVGF | not soluble
MSRTVMCRKYHEELPGLDRPPYPGAKGEDIYNNVSRKAWDEWQKHQTMLINERRLNMMNAEDRKFLQQEMDKFLSGEDYAKADGYVPPSA | soluble
MGSDKIHHHHHHMNEMWLHRADLAESAINERHASRLWMLPRTNLAVVAWPPTAKERLFYRWHYWWQAHYLDCLIDAASRRTTKARKQRIRDTIVGIRLRNLGRLTKNNYYDDKSWLALALDRERRLNKRAKREYLRVLEGNIAAGQDDIQGVLPWRVGEHFFNVPTNGPAAIMLARNGEVEQARKLVDWIFDNLINDKGLVMDGLRMSMRGPEIVDPVYPYCQGVVIGACIEIAEALPFEESVQYLAHARAVIHAVAKEMATPEGVINAATGDGDGGLFKGILMRYLADAAVRLPEDGPANIATKKIAKRLVMASAESVWEHRLEVDGLPVFATDWCDDARLPHNYGVGGSALSDIVRVVRIDERDLSVQLSGWMLLEAAARVSLVD | not soluble
QRISLEIMTLQPRCEDVETAEGVALTVTGVAQVKIMTEKELLAVACEQFLGKNVQDIKNVVLQTLEGHLRSILGTLTVEQIYQDRDQFAKLVREVAAPDVGRMGIEILSFTIKDVYDKVDYLSSLGKTQT | soluble
MSTNKRRTIQIEITEEHFKDLEKALEALKGTQLPFSTTVEQFVELILSNYVATSNKISNLAESGFDVASIQQELEKIGSAAGADDALKSFLDELLKTSQKSFSNTKDGKKNDDDNNSSSKS | soluble
MSKALASDEKDDWITHLKAISNVFTQVCTLSASEESAKKLAIKEREECLQELVELRAIAEAHDDVIQQFHLLLAANHQGDATSRQIFNDMKQEVGDNMERIQEHRLVEAKLNVEKRRNERMAKHINEVSKKSVMHLMATRFYARELAAMRQMMDLVRNAATIESAVKSKLWDEIEKENRLLRLNTLWLINRINSSDLGDAAFENGDDWQSSPRLVILMREHINQGLGLEITGGCDQFRPVVVTGKLKRSMADDDQLRVNDRILAIDGTFVTNTTTHAEVMEMLENESAKDFISLIVSQFDPTKYHEAHPNGKCHKFVSTPISGKADSGEDV | not soluble
SMFKYEEIVLERGNSGLGFSIAGGIDNPHVPDDPGIFITKIIPGGAAAMDGRLGVNDCVLRVNEVDVSEVVHSRAVEALKEAGPVVRLVVRRRQPPPEETSV | soluble
MSLGFSRQAFYKRHLNDLARHEEDVLCSSIIQYCWHLRQAEHLPQAGFRELMVLCQQYFGPKFTLGRDRFCALLRRHGMMLRKRSVRPRTTNSRHRLYKYEDLLNTEPKFVPQRPGELLVADITYVAYQDGFAYLSLLTDAYSRCIVGYCLHPTLEVEGCLNALHQAFAFYDQHQIDTTNMIHHSDRGIQYAGKSYTDLLHGRGWRISMTQTGDPLHNALAERMNNTLKNSWHISSSKQSFDQALLSVDRAVRMYNEARPHQALRAKTPMQVITPESEGHHHHHH | soluble
MKSNPKYFLMNDVERQSKYSPKYVPNNSLKERILEFLDYYIAPLKLYLLSYPMPDCLWDNRKLRLKASGVQVTPSSEPVHIDDRLIHISQKQPSE | not soluble
SNNWVVSGSLTVSGNPLLANDPHLSLTAPGIWLPIVISSPSYSLAGVTIPGVPLVVIGRNSHVAWGFTNVGSDFTDFYRYQWVDENRYFYKGRIFGVEKSSIEAYVWDPLARSYRVQEISVARTIHGPVIEWQGEKFAVSYTSARPTFEMIFLWLLNKASSVRDALSAQRYFYGPPQNMVVADSAGNIAYSPVGAYPERATLPTIETGYGPIVNTGFLPFDGSAGEGEWRGFKPYSSLPVLFNPPQGFVATANSKPFEDGCWDGLGWDYADRFRTERIYTLLQERSAEEPLDAGDMRDIQLDVEDLGLKTLVSLMVRVASGDGGHVLERYMDMLAEWAENPQMNVDDYKPTLALLASWYFARDFWESLYGSEEHWRFIKLEYAEKALKAYLRGEDWVFNYF | not soluble
AGMELVGWLVDKGITSEKQWIQEDQASYISFNAASNSRSQIKAALDNAGKIMSLTKTAPDYLVGQQPVEDISSNRIYKILELNGYDPQYAASVFLGWATKKFGKRNTIWLFGPATTGKTNIAEAIAHTVPFYGCVNWTNENFPFNDCVDKMVIWWEEGKMTAKVVESAKAILGGSKVRVDQKCKSSAQIDPTPVIVTSNTNMCAVIDGNSTTFEHQQPLQDRMFKFELTRRLDHDFGKVTKQEVKDFFRWAKDHVVEVEHEFYVKKGG | soluble
SEPQEERETQVAAWLKKIFGDHPIPQYEVNPRTTEILHHLSERNRVRDRDVYLVIEDLKQKASEYESEAKYLQDLLMESVNFSPANLSSTGSRYLNALVDSAVALETKDTSLASFIPAVNDLTSDLFRTKSKSEEIKIELEKLEKNLTATLVLEKCLQEDVKKAELHLSTERAKVDNRRQNMDFLKAKSEEFRFGIKAAEEQLSARGMDASLSHQSLVALSEKLARLKQQTIPLKKKLESYLDLMPNPSLAQVKIEEAKRELDSIEAELTRRVDMMEL | soluble
MDDATKSSLKAIPLCKTKASPRDGDLWIERLKEEYEAIIAAVQNNKDCDRDWFQLESNERGTKWFGKCWYFHNMVKYEFDVEFDIPITYPVTAPEIALPELDGKTAKMYRGGKICLSEHFKPLWARNTPKFGIAHAFALGLGPWMAVEIPDLIEKGLIQPKA | not soluble
MSLTTSYHIGNVVCAIIEREGRFLIARRPLGKHLARKWEFPGSKVETGESEAEALERELIEELGVRMEIVERLMPVEHCYADRSLRLIAFHCRIAAGAPNAGEHEELRWIDIGEADDYDFPEADLPILAEYRQKIAASVQSEGHHHHHH | not soluble
MGSDKIHHHHHHMAKSKIDELMSVGIDIGKDTFHVVAFDPDGHLVMRKRIKRLALVATFEKLPRCVVGMEACLSAHFVSRTLRKMGFEPGIIPAIYVKPFIKGQKNDYNYAEAISEAALRPNLPVVPEKSQEQLDLQALHRVRSRLVSRRTASINQIRAFLIEQGITVRKGLRVLKNSFGKILDERKDEISPRMRTILIGLYGDWLWLDDRIDTVSKEIEQISRTEENCINVMTVPGIGPMISTAMVAAIGTGEAFGRGRDFAAWVGLVPRQYSTGGRTILGRITKRGSRYLRMLFVQAAKVILMRTNRWPDFSFGDWLIKAAERMNRNKLAVALANKLARMA | not soluble
